From the supplement of paper PMC10567573

B1: IKZF1 (parent)
chain: YHSQDRYEFSSHITRGEHRFHMS
B2: STX5 (parent)
chain: RSEFTLMAKRIGKDLSNTFAKLEK

Variants of: B1
Assay: protein stability index of a GFP-peptide fusion (GPS, HEK-293T) (PSI 1-6); higher = more stable
Conditions: c terminus: native
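Note: lentivirally expressed fusions sorted by FACS into six bins by GFP to DsRed ratio, PSI derived from sequencing read proportions per bin multiplied by bin number.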

Variant	protein stability index
H21E	1.44
H21S	1.89
H21I	3.07
H21Y	1.76
H21C	1.69
H21G	2.11
H21N	2.27
H21M	1.6
H21D	2.15
H21K	1.37
H21R	2.88
H21Q	2.22
H21L	2.13
H21W	1.81
H21A	2.43
H21V	2.25
H21P	1.89
H21T	2.04
H21F	1.98
H18T	1.92
H18Q	1.72
H18Y	1.83
H18S	1.83
H18R	1.82
H18W	2.34
H18V	1.68

Variant	protein stability index
S23I	2.18
S23V	1.97
S23F	2.01
S23K	2.28
S23H	2.23
S23M	1.62
S23E	1.5
S23T	2.02
S23L	1.68
S23A	1.8
S23P	2
S23R	1.61
S23Q	2.68
S23Y	2.42
S23W	2.5
S23C	1.94
S23D	1.5
S23G	2
S23N	2.08
M22E	1.82
M22R	1.99
M22A	2.58
M22I	2.48
M22F	1.53
M22T	2.06
M22K	1.46

Variant	protein stability index
M22N	2.06
M22G	3.65
M22D	1.94
M22L	1.4
M22P	2.01
M22C	3.14
M22S	2.03
M22Y	1.56
M22W	1.65
M22H	1.66
M22V	2
M22Q	2.11
R19I	2.17
R19L	2.54
R19V	2.16
R19Y	2.16
R19D	1.93
R19Q	2.28
R19M	1.92
R19W	2.84
R19H	1.3
R19F	2.39
R19P	1.77
R19E	3.06
R19C	3.13
R19G	1.89

Variant	protein stability index
R19A	2.47
R19K	1.95
R19S	1.99
R19N	2.27
R19T	1.92
F20A	2.15
F20L	2.37
F20S	2.05
F20H	1.93
F20K	2.38
F20Y	1.75
F20R	2.36
F20V	1.39
F20G	1.67
F20I	3.73
F20C	2.12
F20M	1.83
F20D	1.76
F20W	2.93
F20P	1.59
F20N	2.56
F20Q	2.5
F20T	1.75
F20E	1.42

Variants of: B2
Assay: as above
Conditions: c terminus: a fixed tail appended

Variant	protein stability index
A20I	1.63
A20N	1.84
A20P	3.3
A20D	2.15
A20W	2.44
A20S	1.32
A20T	2.69
A20C	3.2
R10D	3.12
R10S	2.11
R10T	1.99
R10Q	1.05
R10P	4.03
R10Y	1.28
R10F	2.29
R10G	2.35
R10N	2.36
R10I	1.95
N17G	3
N17F	2.34
N17P	2.5
N17Y	1.93
N17D	2.63
N17S	3.13

Variant	protein stability index
N17T	2.75
K13M	1.07
K13Q	2.35
K13E	2.34
K13F	3.26
K13D	3.34
K13N	2.06
K13C	2.46
T18G	3.21
T18V	2.21
T18N	1.27
T18Y	3.54
T18W	1.96
T18H	2.41
T18Q	2.02
T18M	2.63
T18E	2.94
T18K	3.25
T18S	1
T18F	4.45
T18C	2.41
I11T	3.13
I11M	1.65
I11N	4.29

Variant	protein stability index
I11F	3.65
I11C	2.06
I11H	3.46
I11G	3.41
I11V	1.16
I11S	3.87
I11Q	3.33
I11D	3.84
I11A	2.77
L22V	1.9
L22A	2.29
L22S	3.17
L22Q	2.92
L22D	4.25
L22R	2.57
L22Y	1.5
L22K	2.47
L22N	3.15
L22M	2.58
L22G	3.27
L22E	3.74
M7W	3.31
M7D	4.15
M7Q	3.21

Variant	protein stability index
M7N	3.04
M7F	3.38
M7G	2.73
M7T	2.54
M7K	3.75
M7S	3.12
M7V	2.73
M7Y	2.39
M7H	2.03
M7E	3.2
M7R	2.72
M7P	3.36
T5C	1.8
T5Q	1.02
T5I	2.62
T5L	2.46
T5P	2.69
T5E	1.35
T5W	2.76
T5N	2.57
G12F	2.15
G12Q	1.69
G12C	2.2
G12N	1.81

Variant	protein stability index
G12E	2.42
G12H	2.87
G12R	2.16
F4N	2.98
F4G	3.64
F4E	4.58
F4A	2.48
F4M	2.35
F4P	3.58
F4D	3.88
F4R	3.34
F4K	3.62
F4V	1.8
L6P	2.85
L6D	1.4
L6C	2.21
L6H	1.86
L6W	2.53
F19C	2.69
F19A	2.79
F19S	3.85
F19E	4.74
F19V	1.96
F19T	3.8

Variant	protein stability index
F19Q	3.44
F19H	3.27
F19W	2.48
F19N	3.42
F19M	1.62
F19Y	2.38
F19D	4.69
S16V	3.75
S16F	4.43
S16G	2.41
S16P	2.46
S16Y	3.19
S16R	3.34
S16D	2.45
S16E	1.41
E3P	4.75
E3H	2.61
E3M	2.25
E3K	2.75
E3Q	4.2
E3L	4.31
E3Y	2.51
E23D	2.2
E23I	2.84

Variant	protein stability index
E23L	3
E23W	2.37
E23P	2.32
E23A	1.98
E23C	3.47
E23K	5.04
E23F	2.65
E23M	1.34
R1K	2.08
R1Y	4.8
R1D	1.92
R1V	2.54
R1H	3.98
R1P	2.63
S2C	3.2
S2T	1.9
S2D	1.66
S2F	2.72
S2P	2.07
S2Q	3.27
K24R	2.5
K24G	4.41
K24H	2.46
K24S	1.63

Variant	protein stability index
K21N	1.04
K21G	2.21
K21H	2.51
K21P	2.38
K21I	2.12
K21D	1.91
K21E	2.04
K21Y	1.45
K21R	2.53
K21S	2.95
K21Q	2.8
K21V	1.4
K21F	2.61
K21A	1.96
D14S	2.13
D14T	4.17
D14I	4.05
D14V	2.64
D14E	4.59
D14P	2.49
D14Y	2.65
D14L	2.61
D14C	2.71
D14K	3.03

Variant	protein stability index
D14M	2.59
A8C	2.49
A8T	1.54
A8Q	2.96
A8Y	1.85
A8P	3.46
A8S	2.1
A8H	3.46
A8N	3.4
A8W	2.44
K9A	1.66
K9W	1.97
K9Q	2.54
K9E	2.56
K9P	2.94
K9M	1.92
K9T	2.06
K9I	1.82
K9D	2.83
K9F	1.53
K9G	2.01
K9S	2.87
K9N	2.63
K9C	2.1

Variant	protein stability index
K9L	1.88
K9R	2.04
L15K	3.24
L15G	3.75
L15W	2.05
L15Q	3.1
L15E	3.89
L15Y	2.4
L15S	2.81
L15N	3.79
L15H	2.6
L15T	3.27
L15P	3.14
L15M	2.72
L15I	3.43
L15A	2.59
